Measurements as given in patent KR20210098147A (dated 2021).

Target: T1, PD-L1 (Programmed death-ligand 1) on MDA-MB-231 cancer cells (UniProt Q9NZQ7 19-290, limits assumed)
T1 construct: whole, on cells; Endogenous PD-L1 of the MDA-MB-231 cell line
Experiment: concluded from co-culture 4-1BB reporter assay with PD-L1-expressing MDA-MB-231 cells

T1 sequence (Q9NZQ7 19-290 limits assumed): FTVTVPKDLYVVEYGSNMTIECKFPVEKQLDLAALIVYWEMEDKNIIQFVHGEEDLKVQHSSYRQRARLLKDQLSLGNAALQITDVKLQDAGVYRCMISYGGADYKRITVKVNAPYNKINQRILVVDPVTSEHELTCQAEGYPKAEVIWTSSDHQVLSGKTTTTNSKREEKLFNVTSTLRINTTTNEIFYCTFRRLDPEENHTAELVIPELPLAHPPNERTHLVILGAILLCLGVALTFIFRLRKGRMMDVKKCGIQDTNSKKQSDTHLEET

B1: αCEA-αPDL1-hyFc-4-1BBL 융합단백질 이량체 (Fc fusion)
chain: EVQLVESGGGVVQPGRSLRLSCSASGFDFTTYWMSWVRQAPGKGLEWIGEIHPDSSTINYAPSLKDRFTISRDNAKNTLFLQMDSLRPEDTGVYFCASLYFGFPWFAYWGQGTPVTVSSGGGGSGGGGSGGGGSDIQLTQSPSSLSASVGDRVTITCKASQDVGTSVAWYQQKPGKAPKLLIYWTSTRHTGVPSRFSGSGSGTDFTFTISSLQPEDIATYYCQQYSLYRSFGQGTKVEIKGGGGSGGGGSGGGGSGGGGSEVQLLESGGGLVQPGGSLRLSCAASGFTFSSYDMSWVRQAPGKSLEWVATISDAGGYIYYSDSVKGRFTISRDNSKNTLYLQMNSLRAEDTAVYICAREFGKRYALDYWGQGTTVTVSSGGGGSGGGGSGGGGSDIQMTQSPSSLSASVGDRVTITCKASQDVTPAVAWYQQKPGKAPKLLIYSTSSRYTGVPSRFSGSGSGTDFTFTISSLQPEDIATYYCQQHYTTPLTFGQGTKLEIKGGGGSGGGGSGGGGSEPKSCDKTHTCPPCPSHTQPLGVFLFPPKPKDQLMISRTPEVTCVVVDVSQEDPEVQFNWYVDGVEVHNAKTKPREEQFNSTYRVVSVLTVLHQDWLNGKEYKCKVSNKGLPSSIEKTISKAKGQPREPQVYTLPPSQEEMTKNQVSLTCLVKGFYPSDIAVEWESNGQPENNYKTTPPVLDSDGSFFLYSRLTVDKSRWQEGNVFSCSVLHEALHNHYTQKSLSLSLGKGGGGSDPAGLLDLRQGMFAQLVAQNVLLIDGPLSWYSDPGLAGVSLTGGLSYKEDTKELVVAKAGVYYVFFCLELRRVVAGEGSGSVSLALHLQPLRSAAGAAALALTVDLPPASSEARNSAFGFQGRLLHLSAGQRLGVHLHTEARARHAWQLTQGATVLGLFRVCPEIPAGLPSPRSE
notes: Homodimer by disulfide bonds in the linker; also called IO-129; αCEA-αPDL1-hyFc-h4-1BBL 융합단백질 이량체
Q: Does B1 bind?
A: binds
